Test results from publication PMC7581431, “Feedback control of Wnt signaling based on ultrastable histidine cluster co-aggregation between Naked/NKD and Axin” (eLife, 2020).

Tests used:
[1] = target: the molecule itself; test: SEC-MALS; purified proteins and preformed complexes, Superdex-200 10/300, 2 mg/ml, 15 mM TrisHCl, 150 mM NaCl, pH 7.4
Lip-DVL2-PDZ = target: T1, Lip-DVL2-PDZ (human, UniProt O14641 285-373); test: ITC; MicroCal iTC200, 15 mM Tris-HCl, 150 mM NaCl, pH 7.4; Lip-DVL2-PDZ or Lip-DVL2-PDZ-V334E (696 μM) injected into 17.2 μM RFP-NKD-EF; conditions: both partners purified
T1 construct: PDZ domain of human DVL2, residues 285-373; also called DVL2 PDZ domain; wt DVL2 PDZ domain; source: E. coli BL21DE3 pRare2, purified (NiNTA, SEC)
T1 sequence (looked up): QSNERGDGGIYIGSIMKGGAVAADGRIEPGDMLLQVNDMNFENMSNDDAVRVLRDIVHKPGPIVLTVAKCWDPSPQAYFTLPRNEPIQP

Kd (Lip-DVL2-PDZ): 3.2 ± 0.2 µM
B1: RFP-NKD1-EF (domain or fragment, human, UniProt Q969G9 110-190, looked up)
chain: EPCPGSKKQLKFEELQCDVSMEEDSRQEWTFTLYDFDNNGKVTREDITSLLHTIYEVVDSSVNHSPTSSKMLRVKLTVAPD
notes: EF-hand of human NKD1, residues 110-190; Dimer by SEC-MALS (expected RFP-NKD1-EF dimer, 71.8 kDa); also called RFP-NKD-EF; NKD1 EF-hand; source: E. coli BL21DE3 pRare2, purified (NiNTA, SEC)
stoichiometry N [1]: 2
